How the values were obtained:
cross-linking = molecular target: the molecule itself; experiment: cross-linking
crystal structure = molecular target: the molecule itself; experiment: crystal structure

Row | Protein | stoichiometry N (cross-linking) | stoichiometry N (crystal structure)
1 | batCOV5-M, M protein of Pipistrellus bat coronavirus HKU5, affinity- and SEC-purified (cross-linking, MST) (natural protein) MASSNVTLSNDEVLRLVKDWNFTWSVVFLLITIVLQYGYPSRSMFVYVIKMFVLWLLWPASMALSIFCAVYPIDLASQIISGILAATSCAMWISYFVQSIRLFMRTGSWWSFNPESNCLLNVPIGGTTVVRPLVEDSTSVTAVVTDGYLKMAGMHFGACDFQRLPSEVTVAKPNVLIALKMIKRQAYGTNSGVAIYHRYKAGNYRRPPIIQDQELALLRA | ≥ 2 | 
2 | batCOV5-MCTD-sfGFP, carboxy-terminal domain of batCOV5-M between the two halves of a split superfold (domain or fragment) ESNCLLNVPIGGTTVVRPLVEDSTSVTAVVTDGYLKMAGMHFGACDFQRLPSEVTVAKPNVLIALKMIKRQAYGTNSGVAIYHRYKAGN |  | 4
